One molecule from paper PMC4872748, “NG2 proteoglycan as a pericyte target for anticancer therapy by tumor vessel infarction with retargeted tissue factor” (Oncotarget, 2016) can be followed below.

In this assay the target is T1, NG2 (nerve/glial antigen 2) proteoglycan (human (endogenous in HuAoSMC and G361), UniProt Q6UVK1 30-2322).
T1 construct: NG2 proteoglycan (CSPG4), transmembrane surface proteoglycan, endogenous on human cells; also called high-molecular melanoma associated antigen; CSPG4; source: endogenous, on human aortic smooth muscle cells (HuAoSMC) and G361-melanoma cells
As to the kind of experiment: radioligand binding; increasing concentrations of 123I-tTF-TAA on cultivated HuAoSMC, gamma counter; nonlinear fit of total binding (GraphPad Prism 6: one site - total binding), an approximation. To be noted: one partner purified.

T1 sequence (Q6UVK1 30-2322): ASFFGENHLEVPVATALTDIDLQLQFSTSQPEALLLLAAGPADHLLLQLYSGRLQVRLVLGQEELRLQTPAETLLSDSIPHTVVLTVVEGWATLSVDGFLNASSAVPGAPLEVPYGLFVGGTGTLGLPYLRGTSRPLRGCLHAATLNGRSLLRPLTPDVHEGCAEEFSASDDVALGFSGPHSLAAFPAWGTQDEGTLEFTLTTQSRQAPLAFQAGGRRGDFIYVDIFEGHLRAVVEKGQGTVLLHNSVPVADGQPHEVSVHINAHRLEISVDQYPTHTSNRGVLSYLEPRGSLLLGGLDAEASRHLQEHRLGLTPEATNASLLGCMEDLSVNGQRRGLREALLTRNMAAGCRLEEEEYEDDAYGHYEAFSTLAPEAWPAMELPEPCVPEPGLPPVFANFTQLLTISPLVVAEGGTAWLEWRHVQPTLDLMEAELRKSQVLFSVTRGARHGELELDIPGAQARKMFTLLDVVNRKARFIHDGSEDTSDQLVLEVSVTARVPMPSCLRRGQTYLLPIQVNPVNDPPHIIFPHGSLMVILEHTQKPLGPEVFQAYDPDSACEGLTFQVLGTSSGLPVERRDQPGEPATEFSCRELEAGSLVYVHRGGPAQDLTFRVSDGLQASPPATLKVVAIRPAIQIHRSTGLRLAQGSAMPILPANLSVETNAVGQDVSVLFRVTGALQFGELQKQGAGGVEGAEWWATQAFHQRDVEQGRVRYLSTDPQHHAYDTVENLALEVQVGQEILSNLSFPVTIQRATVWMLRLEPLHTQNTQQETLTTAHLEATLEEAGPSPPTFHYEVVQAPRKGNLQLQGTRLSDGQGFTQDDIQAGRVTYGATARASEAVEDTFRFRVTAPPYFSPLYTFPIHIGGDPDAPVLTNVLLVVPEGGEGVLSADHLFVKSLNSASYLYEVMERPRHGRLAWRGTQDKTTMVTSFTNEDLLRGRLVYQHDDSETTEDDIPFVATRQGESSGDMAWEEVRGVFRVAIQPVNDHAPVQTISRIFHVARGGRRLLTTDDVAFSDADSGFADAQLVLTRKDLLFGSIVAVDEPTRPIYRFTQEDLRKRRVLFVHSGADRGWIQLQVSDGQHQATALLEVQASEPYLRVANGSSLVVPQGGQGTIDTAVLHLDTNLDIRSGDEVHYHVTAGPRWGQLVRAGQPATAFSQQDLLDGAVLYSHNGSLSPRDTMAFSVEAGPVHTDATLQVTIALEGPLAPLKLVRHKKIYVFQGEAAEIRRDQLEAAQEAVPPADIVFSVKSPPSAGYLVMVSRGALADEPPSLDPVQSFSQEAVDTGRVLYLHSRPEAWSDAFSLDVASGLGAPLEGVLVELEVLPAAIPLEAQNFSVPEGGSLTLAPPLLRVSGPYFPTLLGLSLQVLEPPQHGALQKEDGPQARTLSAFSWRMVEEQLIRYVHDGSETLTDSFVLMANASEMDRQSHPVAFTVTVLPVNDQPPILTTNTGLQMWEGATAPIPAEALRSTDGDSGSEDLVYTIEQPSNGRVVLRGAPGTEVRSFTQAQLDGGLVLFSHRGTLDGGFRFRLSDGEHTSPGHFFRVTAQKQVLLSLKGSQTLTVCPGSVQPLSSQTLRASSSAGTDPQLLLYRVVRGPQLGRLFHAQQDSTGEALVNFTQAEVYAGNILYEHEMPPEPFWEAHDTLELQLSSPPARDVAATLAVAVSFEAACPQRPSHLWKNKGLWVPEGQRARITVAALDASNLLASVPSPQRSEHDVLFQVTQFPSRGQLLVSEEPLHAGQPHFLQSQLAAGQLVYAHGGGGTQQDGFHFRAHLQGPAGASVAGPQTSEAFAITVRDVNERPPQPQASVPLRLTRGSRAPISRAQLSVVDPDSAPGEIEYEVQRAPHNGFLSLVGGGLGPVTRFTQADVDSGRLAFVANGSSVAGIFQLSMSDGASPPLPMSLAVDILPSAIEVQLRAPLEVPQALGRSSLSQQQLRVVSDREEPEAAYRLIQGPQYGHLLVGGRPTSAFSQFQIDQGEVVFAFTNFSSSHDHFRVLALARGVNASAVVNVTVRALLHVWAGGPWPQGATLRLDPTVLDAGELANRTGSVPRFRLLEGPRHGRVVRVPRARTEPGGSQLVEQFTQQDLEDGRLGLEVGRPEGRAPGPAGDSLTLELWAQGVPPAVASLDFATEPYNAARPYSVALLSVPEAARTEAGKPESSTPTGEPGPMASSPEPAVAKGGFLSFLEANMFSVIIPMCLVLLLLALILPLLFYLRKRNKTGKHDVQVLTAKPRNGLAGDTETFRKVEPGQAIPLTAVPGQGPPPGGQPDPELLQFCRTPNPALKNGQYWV

B1: 123I-tTF218-TAA (other)
chain: SGTTNTVAAYNLTWKSTNFKTILEWEPKPVNQVYTVQISTKSGDWKSKCFYTTDTECDLTDEIVKDVKQTYLARVFSYPAGNVESTGSAGEPLYENSPEFTPYLETNLGQPTIQSFEQVGTKVNVTVEDERTLVRRNNTFLSLRDVFGKDLIYTLYYWKSSSSGKKTAKTNTNEFLIDVDKGENYCFSVQAVIPSRTVNRKSTDSPVECMGQEKGEFRTAASGVRSMH
modifications: 123I (iodinated; residues not stated)
Regarding B1, the Kd – broadly, the free concentration of one partner at which half of the binding sites on the other are occupied at equilibrium, for simple one-to-one binding – was about 0.785 µM.
